Test results: PMC6726447

Target: HAdV-D26 fiber knob protein (human adenovirus type 26 (HAdV-D26))
Experiment: crystal structure; HAdV-D26K crystals (PACT Premier B01 and B04, pH 4.0 and pH 8.0) soaked in 10 mM Neu5Ac; cubic space group, biological trimer assembled from it

Substance: HAdV-D26 fiber knob protein (domain or fragment)
- stoichiometry N: 3
